{"source": "paper PMC1540728", "assay_in_all_cases": "NMR titration", "key": {"hnRNP F qRRM1-2": {"target": "T1, hnRNP F qRRM1-2 (Homo sapiens, UniProt P52597 1-194)", "T1 sequence": "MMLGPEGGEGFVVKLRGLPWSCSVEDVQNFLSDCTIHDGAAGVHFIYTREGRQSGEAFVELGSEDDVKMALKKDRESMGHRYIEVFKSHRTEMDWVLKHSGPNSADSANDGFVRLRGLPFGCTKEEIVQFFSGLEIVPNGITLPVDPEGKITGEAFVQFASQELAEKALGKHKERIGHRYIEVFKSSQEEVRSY"}, "hnRNP F qRRM2": {"target": "T2, hnRNP F qRRM2 (Homo sapiens, UniProt P52597 103-194)", "T2 sequence": "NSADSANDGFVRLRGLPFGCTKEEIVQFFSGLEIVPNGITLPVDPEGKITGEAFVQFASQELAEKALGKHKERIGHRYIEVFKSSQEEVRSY"}, "hnRNP F qRRM3": {"target": "T3, hnRNP F qRRM3 (Homo sapiens, UniProt P52597 277-381)", "T3 sequence": "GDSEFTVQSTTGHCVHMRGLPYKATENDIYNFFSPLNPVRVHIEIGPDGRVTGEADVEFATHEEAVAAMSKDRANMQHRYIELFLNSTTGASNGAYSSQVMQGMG"}}}
{"binder": "CGGGAUGGGGUA (structured_RNA)", "note": "[Bcl-x G-tracts 1-2 RNA]", "values": [{"measurement": "binding result", "setting": "hnRNP F qRRM1-2", "value": "binds"}]}
{"binder": "UGCAUG (ssRNA)", "note": "[Fox RNA-binding site UGCAUG]", "values": [{"measurement": "binding result", "setting": "hnRNP F qRRM2", "value": "no binding"}]}
{"binder": "GGG (ssRNA)", "note": "[GGG RNA]", "values": [{"measurement": "binding result", "setting": "hnRNP F qRRM2", "value": "binds"}]}
{"binder": "CUGGGGU (structured_RNA)", "note": "[Bcl-x third G-tract RNA]", "values": [{"measurement": "binding result", "setting": "hnRNP F qRRM3", "value": "no binding"}]}
